Measurements: patent US7728193B2, “Phytochrome-interacting protein and a use thereof” (Genomine Inc., priority 2004, dated 2010)

Assays:
phytochrome B = biological target: T1, phytochrome B (Arabidopsis thaliana, UniProt P14713); assay: In vitro binding assay (GST pull-down of 35S-labeled TnT protein); conditions: 1 μg GST-PAPP5 fusion protein, 4° C.
T1 sequence (P14713 1-1172): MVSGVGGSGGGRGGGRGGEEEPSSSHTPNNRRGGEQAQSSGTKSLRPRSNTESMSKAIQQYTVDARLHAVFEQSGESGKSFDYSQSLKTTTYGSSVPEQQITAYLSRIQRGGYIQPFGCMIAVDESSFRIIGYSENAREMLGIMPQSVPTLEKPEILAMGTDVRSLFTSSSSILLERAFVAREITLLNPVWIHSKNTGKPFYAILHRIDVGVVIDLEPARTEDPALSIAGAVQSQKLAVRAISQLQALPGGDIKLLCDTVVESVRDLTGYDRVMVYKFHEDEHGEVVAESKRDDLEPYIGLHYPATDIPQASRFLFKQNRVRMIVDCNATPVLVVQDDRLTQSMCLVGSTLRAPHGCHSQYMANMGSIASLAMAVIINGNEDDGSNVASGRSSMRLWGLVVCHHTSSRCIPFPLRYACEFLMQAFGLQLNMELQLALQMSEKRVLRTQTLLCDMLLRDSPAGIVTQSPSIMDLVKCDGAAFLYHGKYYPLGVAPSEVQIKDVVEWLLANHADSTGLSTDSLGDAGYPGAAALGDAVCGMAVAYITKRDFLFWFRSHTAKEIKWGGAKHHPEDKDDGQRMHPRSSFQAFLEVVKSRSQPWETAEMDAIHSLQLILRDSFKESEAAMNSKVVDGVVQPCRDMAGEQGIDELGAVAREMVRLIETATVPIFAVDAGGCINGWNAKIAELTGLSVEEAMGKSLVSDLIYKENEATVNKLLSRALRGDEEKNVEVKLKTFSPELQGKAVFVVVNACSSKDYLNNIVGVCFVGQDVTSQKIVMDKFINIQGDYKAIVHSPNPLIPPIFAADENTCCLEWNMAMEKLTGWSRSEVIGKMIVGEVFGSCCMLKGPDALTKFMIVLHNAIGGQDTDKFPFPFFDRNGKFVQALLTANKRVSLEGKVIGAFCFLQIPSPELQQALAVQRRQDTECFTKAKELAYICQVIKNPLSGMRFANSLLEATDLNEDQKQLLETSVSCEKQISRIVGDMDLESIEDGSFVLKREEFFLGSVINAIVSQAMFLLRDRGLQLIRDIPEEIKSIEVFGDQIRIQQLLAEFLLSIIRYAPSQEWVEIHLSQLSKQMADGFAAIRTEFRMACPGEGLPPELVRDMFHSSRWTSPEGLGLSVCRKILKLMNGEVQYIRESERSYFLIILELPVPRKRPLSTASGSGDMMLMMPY
T1 sequence (Q84XU2 1-484 isoform Q84XU2-2 partner): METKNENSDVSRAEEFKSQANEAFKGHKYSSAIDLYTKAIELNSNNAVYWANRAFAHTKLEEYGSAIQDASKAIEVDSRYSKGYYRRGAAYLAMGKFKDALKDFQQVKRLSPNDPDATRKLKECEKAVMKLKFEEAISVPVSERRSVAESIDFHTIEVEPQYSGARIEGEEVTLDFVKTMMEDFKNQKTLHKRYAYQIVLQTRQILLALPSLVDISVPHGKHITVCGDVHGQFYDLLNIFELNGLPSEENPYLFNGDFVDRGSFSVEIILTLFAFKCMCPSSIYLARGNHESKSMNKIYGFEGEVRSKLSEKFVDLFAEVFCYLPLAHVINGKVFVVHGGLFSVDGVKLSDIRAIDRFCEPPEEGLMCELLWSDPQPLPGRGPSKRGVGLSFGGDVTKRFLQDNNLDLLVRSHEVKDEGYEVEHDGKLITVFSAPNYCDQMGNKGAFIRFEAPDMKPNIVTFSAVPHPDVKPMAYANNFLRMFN

phytochrome A = biological target: T2, phytochrome A (Arabidopsis thaliana, UniProt P14712); assay: as above; conditions: 1 μg GST-PAPP5 fusion protein, 4° C.
T2 sequence (P14712 1-1122): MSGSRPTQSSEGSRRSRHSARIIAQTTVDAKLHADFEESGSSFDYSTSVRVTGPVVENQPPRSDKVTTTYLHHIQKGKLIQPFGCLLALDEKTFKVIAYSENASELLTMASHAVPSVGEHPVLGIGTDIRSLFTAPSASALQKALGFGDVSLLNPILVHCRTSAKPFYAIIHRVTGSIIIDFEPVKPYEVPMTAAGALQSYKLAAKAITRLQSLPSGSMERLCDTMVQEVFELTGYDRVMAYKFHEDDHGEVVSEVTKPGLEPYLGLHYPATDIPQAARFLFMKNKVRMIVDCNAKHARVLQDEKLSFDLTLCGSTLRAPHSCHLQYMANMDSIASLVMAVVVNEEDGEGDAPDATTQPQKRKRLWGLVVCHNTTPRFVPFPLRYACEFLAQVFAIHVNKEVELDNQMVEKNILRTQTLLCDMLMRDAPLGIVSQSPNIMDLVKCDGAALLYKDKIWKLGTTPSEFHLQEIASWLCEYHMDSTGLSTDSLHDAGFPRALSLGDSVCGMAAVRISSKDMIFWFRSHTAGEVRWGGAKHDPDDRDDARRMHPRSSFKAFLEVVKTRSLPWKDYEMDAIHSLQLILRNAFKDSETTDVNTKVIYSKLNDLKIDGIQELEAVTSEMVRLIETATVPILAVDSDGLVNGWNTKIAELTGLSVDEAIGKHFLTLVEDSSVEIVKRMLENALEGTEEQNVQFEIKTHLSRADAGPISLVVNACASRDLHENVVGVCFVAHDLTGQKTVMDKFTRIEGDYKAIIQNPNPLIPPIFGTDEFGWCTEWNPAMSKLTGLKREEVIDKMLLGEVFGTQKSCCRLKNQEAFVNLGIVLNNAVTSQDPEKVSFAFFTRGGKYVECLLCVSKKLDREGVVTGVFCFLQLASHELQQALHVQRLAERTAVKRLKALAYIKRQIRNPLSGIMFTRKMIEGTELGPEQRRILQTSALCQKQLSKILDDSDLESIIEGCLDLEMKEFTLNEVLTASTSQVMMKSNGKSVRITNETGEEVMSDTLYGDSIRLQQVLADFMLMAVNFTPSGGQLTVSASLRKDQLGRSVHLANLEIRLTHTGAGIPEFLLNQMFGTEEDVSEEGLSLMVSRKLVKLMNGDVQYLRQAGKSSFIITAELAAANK
T2 sequence (Q84XU2 1-484 isoform Q84XU2-2 partner): T1 sequence (Q84XU2 1-484 isoform Q84XU2-2 partner)

Substance: PAPP5: type 5 serine/threonine protein phosphatase of Arabidopsis thaliana interacting with phytochromes, SEQ ID NO: 4
- binding to phytochrome B (phytochrome B): has the property of binding
- binding to phytochrome A (phytochrome A): has the property of binding
